Source: patent US20230192818A1
Values joined by “and” are separate entries in the source; they are usually repeats but may differ in a detail not shown here. Identical values can stand only once.

Columns and labels:
FCGR1 = FCGR1 (UniProt P12314)
FCGR 2a (H 167) = FCGR 2a (H 167) (UniProt P12318)
FCGR 3a (F 176) = FCGR 3a (F 176) (UniProt P08637)
FCGR 2b/c = FCGR 2b/c (UniProt P31994)
FcRn = FcRn (UniProt P55899)
FCGR 3a (V 176) = FCGR 3a (V 176) (UniProt P08637)
Sequence of FCGR 3a (V 176) (P08637 17-208 F176V limits assumed): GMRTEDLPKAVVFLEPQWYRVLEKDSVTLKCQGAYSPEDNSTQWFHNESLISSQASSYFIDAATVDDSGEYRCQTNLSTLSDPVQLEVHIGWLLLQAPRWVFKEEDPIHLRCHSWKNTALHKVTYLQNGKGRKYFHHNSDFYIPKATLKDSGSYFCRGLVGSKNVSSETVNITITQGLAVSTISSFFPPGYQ

Sequence of FCGR 3a (F 176) (P08637 17-208 limits assumed): as the sequence (P08637 17-208 F176V limits assumed) above, with V160F counted along it
Sequence of FCGR 2b/c (P31994 46-217 limits assumed): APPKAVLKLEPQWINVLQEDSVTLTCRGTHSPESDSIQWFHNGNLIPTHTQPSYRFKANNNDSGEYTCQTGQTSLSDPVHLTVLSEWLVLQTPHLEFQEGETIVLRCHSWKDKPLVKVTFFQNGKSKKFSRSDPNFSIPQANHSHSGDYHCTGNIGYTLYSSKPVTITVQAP
Sequence of FCGR1 (P12314 16-288 limits assumed): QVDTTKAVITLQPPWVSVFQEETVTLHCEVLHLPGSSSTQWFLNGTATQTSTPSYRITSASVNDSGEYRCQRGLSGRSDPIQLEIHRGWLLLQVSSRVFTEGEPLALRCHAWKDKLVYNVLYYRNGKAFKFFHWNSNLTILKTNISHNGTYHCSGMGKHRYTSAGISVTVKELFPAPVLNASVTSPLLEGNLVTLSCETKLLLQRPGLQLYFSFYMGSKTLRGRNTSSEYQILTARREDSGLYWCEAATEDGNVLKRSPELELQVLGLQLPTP

Kd (FCGR1): 0.46 nM
koff (FCGR1): 0.000245 s⁻¹
Kd (FCGR 2a (H 167)): 462 nM and 537 nM
Kd (FCGR 3a (F 176)): 1110 nM and 796 nM
Kd (FCGR 2b/c): 1360 nM and 1590 nM
Kd (FcRn): 81.1 nM and 86.5 nM
Kd (FCGR 3a (V 176)): 161 nM and 210 nM
Substance: human IgG1 isotype control (antibody)
